# Assay results from patent US20200071711, “MODULAR CONSTRUCTION OF SYNTHETIC GENE CIRCUITS IN MAMMALIAN CELLS USING MATHEMATICAL MODELING OF CLOSED LOOP TRANSCRIPTIONAL REPRESSORS” (Tsinghua University, published 2020).
# T1: TALER14 (synthetic, UniProt Q56830 SEQ:262-1310)
# T1 chain: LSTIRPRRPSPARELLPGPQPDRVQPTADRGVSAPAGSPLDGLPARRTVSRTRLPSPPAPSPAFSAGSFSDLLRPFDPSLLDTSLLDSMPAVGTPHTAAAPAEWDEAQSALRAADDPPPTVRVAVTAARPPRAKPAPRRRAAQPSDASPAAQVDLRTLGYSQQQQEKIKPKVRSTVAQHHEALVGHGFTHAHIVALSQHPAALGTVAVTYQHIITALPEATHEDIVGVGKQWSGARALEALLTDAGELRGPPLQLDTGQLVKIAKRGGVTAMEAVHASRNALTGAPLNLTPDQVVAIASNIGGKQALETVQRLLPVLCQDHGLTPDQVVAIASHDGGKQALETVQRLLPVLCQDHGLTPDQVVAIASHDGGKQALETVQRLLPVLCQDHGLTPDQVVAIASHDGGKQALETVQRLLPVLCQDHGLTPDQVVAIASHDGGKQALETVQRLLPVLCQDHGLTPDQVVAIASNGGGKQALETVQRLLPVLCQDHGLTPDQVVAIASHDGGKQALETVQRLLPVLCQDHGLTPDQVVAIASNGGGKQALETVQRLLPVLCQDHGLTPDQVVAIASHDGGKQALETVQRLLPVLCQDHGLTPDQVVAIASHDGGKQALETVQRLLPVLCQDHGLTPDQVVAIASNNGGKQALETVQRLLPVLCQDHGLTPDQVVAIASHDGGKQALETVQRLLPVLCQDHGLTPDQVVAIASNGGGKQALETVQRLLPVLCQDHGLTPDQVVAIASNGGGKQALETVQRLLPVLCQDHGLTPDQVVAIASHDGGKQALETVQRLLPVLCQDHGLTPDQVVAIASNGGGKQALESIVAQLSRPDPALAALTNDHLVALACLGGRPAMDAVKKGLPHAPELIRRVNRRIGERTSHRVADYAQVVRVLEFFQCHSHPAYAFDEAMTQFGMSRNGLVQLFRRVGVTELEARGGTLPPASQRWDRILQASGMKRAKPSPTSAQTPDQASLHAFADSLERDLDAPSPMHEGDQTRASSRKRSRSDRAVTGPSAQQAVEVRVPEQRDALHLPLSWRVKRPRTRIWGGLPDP
# B1: T14 site (dsDNA)
# DNA 1: TACCCCTCTCCGCTTCT
# DNA 2: AGAAGCGGAGAGGGGTA
# Target: T1, TALER14
# Assay: cell_activity; HEK293, two sites flanking CMVmini
# Conditions: tags: EYFP-2A upstream, SV40 NLS
binder,measurement,value
B1,binding signal,1440 fold repression
